Earlier results on one substance are cited in PMC7522120.

A word on the Kd: it is a measure of binding affinity in units of concentration.

The target in the data set is Folate receptor alpha (Homo sapiens) (UniProt P15328).
Folate receptor alpha (Homo sapiens), sequence (P15328 25-234): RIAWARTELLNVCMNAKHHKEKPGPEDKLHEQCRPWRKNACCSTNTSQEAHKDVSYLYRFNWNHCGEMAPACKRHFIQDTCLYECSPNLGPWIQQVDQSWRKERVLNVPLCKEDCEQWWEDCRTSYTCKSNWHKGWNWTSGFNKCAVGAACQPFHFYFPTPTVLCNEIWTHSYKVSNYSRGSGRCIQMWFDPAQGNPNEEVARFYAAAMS

Regarding farletuzumab, the dissociation constant Kd was 2 nM.
